According to patent publication US4016250A, “Method for testing for pregnancy” (Cornell Research Foundation, Inc., priority 1974, dated 1977):

Assays:
[1] = target: T1, receptor for HCG in plasma membranes from bovine corpora lutea (Bos taurus, UniProt Q28005); experiment: Radioreceptorassay of HCG: competition with 125I-HCG for plasma membrane receptor; format: binding
T1 construct: 100 g. of tissue from approximately 25 large corpora lutea; from tissue; host or cells: bovine corpora lutea of early pregnancy (slaughterhouse), plasma membrane fraction from zonal sucrose gradient
Procedure: All procedures in the preparation of plasma membranes were carried out in an ice bath or at 4° C. Fresh bovine ovaries from early pregnancy (first trimester: fetus length from crown to rump up to 22 cm.) were obtained from the slaughter house and stored in liquid nitrogen until processed. In a typical experiment, 100 g. of tissue from approximately 25 large corpora lutea were cut into small pieces with a sharp steel blade and ground in 500 ml. of 10 mM. Tris-HCl buffer of pH. 7.8 containing one mM. of MgCl2, one MM. dithiothreitol, 10,000I.U. of Trasylol (FBA Pharmaceuticals) per liter and 0.25 M. sucrose. The homogenate was filtered through two layers of cheese cloth and the larger particles were reprocessed in 500 ml. of the buffer. […] The homogenate was centifuged at 650 xg. for 20 minutes in a Sorvall refrigerated centrifuge (RC B, Rotor GSA) to remove intact cells, cell debris and nuclei. The 650 × g. supernatant was again centrifuged at 13,000 g. for 20 minutes in the same centrifuge. […]
In Table I, the incubation was performed for 30 minutes at 37° C. in a Dunaboff water bath shaker. […] The supernates were aspirated and the pellets were counted in a Packard Autogamma counter with a 51% efficiency for I^125. The standard curves and the hormonal concentration in the plasma samples were calculated by a time sharing IBM computer using logit-log transformations.

[2] = target: T2, PRL receptor sites in ovarian homogenates (Bos taurus, UniProt Q28172); experiment: Specificity of 125I-hPRL binding: displacement by unlabeled hormones; parameters: species or system bovine
T2 construct: from tissue; host or cells: ovarian homogenate (bovine, from the preparation section)
T2 sequence (Q28172 25-581): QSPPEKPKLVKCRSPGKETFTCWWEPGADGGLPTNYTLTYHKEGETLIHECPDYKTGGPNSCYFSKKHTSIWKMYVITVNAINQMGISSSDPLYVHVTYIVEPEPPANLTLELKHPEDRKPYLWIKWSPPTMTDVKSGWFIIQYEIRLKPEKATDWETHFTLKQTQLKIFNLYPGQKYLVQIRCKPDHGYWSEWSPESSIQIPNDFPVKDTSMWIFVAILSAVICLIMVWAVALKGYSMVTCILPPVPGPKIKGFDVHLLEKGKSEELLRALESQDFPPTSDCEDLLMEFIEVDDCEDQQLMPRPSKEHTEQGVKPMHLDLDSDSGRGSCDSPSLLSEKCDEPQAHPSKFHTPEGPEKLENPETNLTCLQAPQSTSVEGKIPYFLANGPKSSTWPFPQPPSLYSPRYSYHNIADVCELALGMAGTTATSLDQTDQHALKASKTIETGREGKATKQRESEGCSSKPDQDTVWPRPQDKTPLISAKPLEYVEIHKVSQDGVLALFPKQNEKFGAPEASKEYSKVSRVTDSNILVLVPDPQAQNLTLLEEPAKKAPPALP
Procedure: A reaction mixture containing 100 ul of incubation buffer containing 10 IU Trasylol (FBA Pharmaceuticals, New York, New York), 50 ul of receptor preparation equivalent to 1-300 ug of protein and 100 ul of ^125 I-hPRL (SA; 50-70 uCi/ug) were incubated at 37° C. for 2 hours in the absence and in the presence of 1 ug of unlabeled bovine PRL. At the end of incubation, 1 ml of ice cold buffer was added to all tubes and tubes were centrifuged at 5,000 rpm for 20 minutes. The supernatants were aspirated. The pellets containing receptor bound hormones were counted in an Automamma counter with a 51% efficiency for ^125 I (Packard Instrument Company, Downers Grove, Illinois). Specific binding was calculated as the difference of binding in the tubes with and without unlabeled PRL.

T1 sequence (Q28005 27-701): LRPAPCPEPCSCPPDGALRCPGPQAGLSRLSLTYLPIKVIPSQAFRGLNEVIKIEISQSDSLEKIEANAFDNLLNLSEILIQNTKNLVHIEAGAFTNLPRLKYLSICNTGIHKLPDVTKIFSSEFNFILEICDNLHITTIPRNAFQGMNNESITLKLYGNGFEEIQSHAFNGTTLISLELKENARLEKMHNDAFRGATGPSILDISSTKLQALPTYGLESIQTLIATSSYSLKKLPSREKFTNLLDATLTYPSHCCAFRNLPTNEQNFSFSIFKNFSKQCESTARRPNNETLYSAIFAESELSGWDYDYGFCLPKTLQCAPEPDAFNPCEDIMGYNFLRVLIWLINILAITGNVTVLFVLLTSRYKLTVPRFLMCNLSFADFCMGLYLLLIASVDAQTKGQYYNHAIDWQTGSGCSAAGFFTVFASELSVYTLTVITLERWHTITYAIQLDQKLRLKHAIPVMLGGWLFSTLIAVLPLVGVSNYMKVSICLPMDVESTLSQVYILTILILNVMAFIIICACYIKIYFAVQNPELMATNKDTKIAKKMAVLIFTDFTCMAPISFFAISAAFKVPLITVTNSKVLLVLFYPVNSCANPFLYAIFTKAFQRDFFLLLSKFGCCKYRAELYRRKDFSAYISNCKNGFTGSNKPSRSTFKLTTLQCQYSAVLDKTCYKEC

Row | Substance | cross-reaction in the radioreceptorassay of HCG (FIG. 2) ([1]; FIG. 2 legends: TSH, HGH, PRL are plasma from hypothyroid, acromegalic, postpartum lactation subjects) | potency in displacing receptor-bound 125I-hPRL relative to hPRL [2] | displacement of 125I-hPRL bound to receptor protein ([2]; various concentrations) | logit-log line of radioreceptorassay response compared with HCG ([1]; same system, different concentrations)
1 | human growth hormone [hGH] | no cross-reaction | 0.5-1 % of hPRL | capable of displacing | 
2 | LH from rat: sample of luteinizing hormone from rat |  |  |  | parallel to the line for HCG
